Data set [1] has as its target Ayg1p chain-shortening enzyme (Aspergillus fumigatus, UniProt Q9UVV1). Briefly: T4HN production detected in yeast co-expressing alb1 and ayg1. Format: cell-based. The conditions noted are these: S. cerevisiae INVSc1-npgA, YWA1 formed in the cell by Alb1p; 30 °C.
Data set [2] has as its system O=C1C[C@H](O)Cc2cc(O)cc(O)c21. The data set is described as follows: purified protein. The conditions noted are these: conditions not separately told (YWA1 assay: pH 6.0, 30 °C).
The target of data set [3] is T1, Arp1p with His-tag (Arp1p-HT), Arp1p dehydratase of Aspergillus fumigatus (Aspergillus fumigatus (strain B-5233)), O14434.
T1 chain: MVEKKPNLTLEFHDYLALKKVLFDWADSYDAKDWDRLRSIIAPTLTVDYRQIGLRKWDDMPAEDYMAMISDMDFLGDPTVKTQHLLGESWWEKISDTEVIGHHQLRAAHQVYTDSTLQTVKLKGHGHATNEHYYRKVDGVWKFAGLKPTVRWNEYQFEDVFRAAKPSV
Briefly: SEC. The conditions noted are these: remark: other sources report otherwise.

With `CC1(O)CC(=O)c2c(cc3cc(O)cc(O)c3c2O)O1` (stereo not shown) [YWA1], the “T4HN production detected in yeast co-expressing alb1 and ayg1” value in data set [1] was “co-transformed into yeast (S. cerevisiae INVSc1-npgA/pYES-alb1+p425-ayg1) and T4HN production was detected”.
The Km is the concentration of substrate that gives half-maximal velocity. A word on the kcat: it is the maximal rate divided by the concentration of active sites. As to “Arp1p (Arp1p-HT) dehydratase (Aspergillus fumigatus Af293)”, in data set [2], the Km is 15.7 µM and the kcat amounted to 2.7 s⁻¹.

B1: Arp1p with His-tag (Arp1p-HT), Arp1p dehydratase of Aspergillus fumigatus, O14434 1-168 (enzyme)
chain: MVEKKPNLTLEFHDYLALKKVLFDWADSYDAKDWDRLRSIIAPTLTVDYRQIGLRKWDDMPAEDYMAMISDMDFLGDPTVKTQHLLGESWWEKISDTEVIGHHQLRAAHQVYTDSTLQTVKLKGHGHATNEHYYRKVDGVWKFAGLKPTVRWNEYQFEDVFRAAKPSV
The term stoichiometry N denotes a count of units in the complex or per binding partner. B1 displayed a stoichiometry N in data set [3] of 3.

(Values after paper PMC8612989 (Environmental microbiology reports, 2021).)
